Measurements: patent publication US20190170753A1 (ICAHN SCHOOL OF MEDICINE AT MOUNT SINAI, published 2019)
Where no end group is shown, it is not given here.

Columns and labels:
[1] = molecular target: T1, HCV core peptide 48 (hepatitis C virus, HELM PEPTIDE1{[O=C1N[C@H]2[C@H](CS[C@H]2CCCCC(=O)[*:2])N1].S.G.S.G.G.W.L.L.S.P.R.G.S.R.P.S.W.G.P.[am]}$$$$V2.0; SMILES …); test: peptide EIA
T1 construct: also called aa 95-109
T1 peptide: SGSGGWLLSPRGSRPSWGP

[2] = molecular target: T2, HCV core peptide 49 (hepatitis C virus, HELM PEPTIDE1{[O=C1N[C@H]2[C@H](CS[C@H]2CCCCC(=O)[*:2])N1].S.G.S.G.L.L.S.P.R.G.S.R.P.S.W.G.P.T.D.[am]}$$$$V2.0; SMILES …); test: peptide EIA
T2 peptide: SGSGLLSPRGSRPSWGPTD

[3] = molecular target: T1, HCV core peptide 48; test: peptide EIA, 2 ug/mL IgG (summary table)
Experimental: (§1) The coated plates were kept dry in a sealed foil pouch and stored at <10 degrees C. until ready for use. A peptide coated plate for each test antibody was blocked using 3% BSA in PBS with 0.5% Tween 20. The blocked plates were washed with distilled water and a 2 ug/mL solution of purified IgG from each test sample diluted in BSA block solution was added to each peptide coated well of the blocked plate and allowed to incubate at room temperature for at least one hour. Following incubation the plates were washed with distilled water. A 200 ng/mL solution of peroxidase labeled F(ab′)2 fragment goat anti-mouse IgG Fc fragment specific (Jackson Immunoresearch) in BSA block solution was added to all wells and incubated at room temperature for 30 minutes. The plates were washed with distilled water and o-phenylenediamine substrate was used as the chromagen to generate signal. Plates were read at 492 nm and the results were analyzed.

[4] = molecular target: T2, HCV core peptide 49; test: peptide EIA, 2 ug/mL IgG (summary table)
Experimental: as §1

[5] = molecular target: T3, HCV core peptide 50 (hepatitis C virus, HELM PEPTIDE1{[O=C1N[C@H]2[C@H](CS[C@H]2CCCCC(=O)[*:2])N1].S.G.S.G.S.P.R.G.S.R.P.S.W.G.P.T.D.P.R.[am]}$$$$V2.0; SMILES …); test: peptide EIA, 2 ug/mL IgG (summary table)
T3 construct: also called aa 99-113
T3 peptide: SGSGSPRGSRPSWGPTDPR
Experimental: as §1

[6] = molecular target: T4, HCV core peptide 51 (hepatitis C virus, HELM PEPTIDE1{[O=C1N[C@H]2[C@H](CS[C@H]2CCCCC(=O)[*:2])N1].S.G.S.G.R.G.S.R.P.S.W.G.P.T.D.P.R.R.R.[am]}$$$$V2.0; SMILES …); test: peptide EIA, 2 ug/mL IgG (summary table)
T4 peptide: SGSGRGSRPSWGPTDPRRR
Experimental: as §1

[7] = molecular target: T5, HCV core peptide 52 (hepatitis C virus, HELM PEPTIDE1{[O=C1N[C@H]2[C@H](CS[C@H]2CCCCC(=O)[*:2])N1].S.G.S.G.S.R.P.S.W.G.P.T.D.P.R.R.R.S.R.[am]}$$$$V2.0; SMILES …); test: peptide EIA, 2 ug/mL IgG (summary table)
T5 peptide: SGSGSRPSWGPTDPRRRSR
Experimental: as §1

[8] = molecular target: T6, HCV core peptide 53 (hepatitis C virus, HELM PEPTIDE1{[O=C1N[C@H]2[C@H](CS[C@H]2CCCCC(=O)[*:2])N1].S.G.S.G.P.S.W.G.P.T.D.P.R.R.R.S.R.N.L.[am]}$$$$V2.0; SMILES …); test: peptide EIA, 2 ug/mL IgG (summary table)
T6 peptide: SGSGPSWGPTDPRRRSRNL
Experimental: as §1

[9] = molecular target: T7, HCV core peptide 55 (hepatitis C virus, HELM PEPTIDE1{[O=C1N[C@H]2[C@H](CS[C@H]2CCCCC(=O)[*:2])N1].S.G.S.G.P.T.D.P.R.R.R.S.R.N.L.G.K.V.I.[am]}$$$$V2.0; SMILES …); test: peptide EIA, 2 ug/mL IgG (summary table)
T7 construct: also called aa 109-123
T7 peptide: SGSGPTDPRRRSRNLGKVI
Experimental: as §1

[10] = molecular target: T8, Mut1T110N biotin labeled HCV core peptide (hepatitis C virus, biotin labeled (position not given)); test: capture EIA; Ab 1000 ng/mL; bt-peptide 500 ng/mL
T8 peptide: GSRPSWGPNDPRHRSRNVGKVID

[11] = molecular target: T9, Mut6T110S biotin labeled HCV core peptide (hepatitis C virus, biotin labeled (position not given)); test: capture EIA; Ab 1000 ng/mL; bt-peptide 500 ng/mL
[12] = molecular target: T10, C113WT biotin labeled HCV core peptide (hepatitis C virus, also: biotin labeled, position not given here); test: capture EIA; Ab 1000 ng/mL; bt-peptide 500 ng/mL
T10 peptide: RGSRPSWGPTD

[13] = molecular target: T11, C113T109N biotin labeled HCV core peptide (hepatitis C virus, also: biotin labeled, position not given here); test: capture EIA; Ab 1000 ng/mL; bt-peptide 500 ng/mL
T11 construct: also called C113T110N
T11 peptide: RGSRPSWGPND

[14] = molecular target: T12, 92-133 biotin labeled HCV core peptide (hepatitis C virus, UniProt Q9WMX2 92-133, chain 1: biotin label (bt-pep). Its position and any spacer are not visible in the passages shown.); test: capture EIA; Ab 1000 ng/mL; bt-peptide 500 ng/mL
T12 construct: Only the label 92-133 is printed
T12 peptide: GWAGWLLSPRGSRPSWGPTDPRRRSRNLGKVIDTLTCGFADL
Experimental: (§2) Assay wells were coated with sheep anti-mouse IgG Fc specific antibody and incubated overnight. The coating solution was then removed; the wells blocked using BSA/tween in PBS and then washed with dH2O. […] Next, biotin labeled peptides (diluted to 500 ng/mL in block) were added, the plates incubated for 10 minutes while shaking at 700 rpm and then washed. Peroxidase conjugated streptavidin (diluted to 200 ng/mL in block) was then added to all assay wells, incubated for 20 minutes while shaking at 700 rpm and then washed. Finally, color was developed using OPD and signal quenched using 1N H₂SO₄. Signal was read at 492 nm.

[15] = molecular target: T13, WT1STHV biotin labeled HCV core peptide (hepatitis C virus, biotin labeled (position not given)); test: capture EIA; Ab 1000 ng/mL; bt-peptide 500 ng/mL
T13 peptide: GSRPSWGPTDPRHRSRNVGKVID

[16] = molecular target: T8, Mut1T110N biotin labeled HCV core …; test: capture EIA; Ab 31.25 ng/mL; bt-peptide 500 ng/mL
Experimental: as §2

[17] = molecular target: T9, Mut6T110S biotin labeled HCV core …; test: capture EIA; Ab 31.25 ng/mL; bt-peptide 500 ng/mL
Experimental: as §2

[18] = molecular target: T10, C113WT biotin labeled HCV core peptide; test: capture EIA; Ab 31.25 ng/mL; bt-peptide 500 ng/mL
Experimental: as §2

[19] = molecular target: T12, 92-133 biotin labeled HCV core peptide; test: capture EIA; Ab 31.25 ng/mL; bt-peptide 500 ng/mL
Experimental: as §2

B1: Neo4 mouse monoclonal antibody (antibody, V domains shown)
VH: QIQLKESGPAVIKPSQSLSLTCIVSGFSITSSVYCWQWIRQPPGKGLEWMGRICYDGSVDYSPSITSRGTISRDTSLNKVFFQLSSVTNEDTAMYYCSRENHIDYYDTTYPSFDVWGAGTTVTVSS
VL: DIVLTQSPASLIVSLGQRATISCRASKSVNEYGYTYMHWYQQKPGLPPKLLIYLASNLDSGVPARFSGSGSGTDFTLNIHPVEEEDAATYYCQHSRELPYTFGGGTKLEIKR
notes: Mouse hybridoma antibody, isotype IgG1, purified with Protein G; also called HCV Neo4
[1]
  binding result: no binding
[2]
  binding result: no binding
[3]
  OD (A492 nm): 0.04 OD
[4]
  OD (A492 nm): 0.05 OD
[5]
  OD (A492 nm): 1.03 OD
[6]
  OD (A492 nm): 0.96 OD
[7]
  OD (A492 nm): 0.93 OD
[8]
  OD (A492 nm): 0.96 OD
[9]
  OD (A492 nm): 0.97 OD
[10]
  signal at 492 nm: 0.0678 A492
[11]
  signal at 492 nm: 1.17 A492
[12]
  signal at 492 nm: 0.222 A492
[13]
  signal at 492 nm: 0.0591 A492
[14]
  signal at 492 nm: 1.41 A492
[15]
  signal at 492 nm: 2 A492
[16]
  signal at 492 nm: 0.0938 A492
[17]
  signal at 492 nm: 0.48 A492
[18]
  signal at 492 nm: 0.0622 A492
[19]
  signal at 492 nm: 1.11 A492
